Changes are numbered by the printed parent chain. Numbers in names are those of the source. Entries after “also recorded” stand apart in the source; their conditions may differ. Ends that are not written are not given here.
Tests used:
U87MG cells = assay: Binding of AgRP mutant 7A to U87MG cells; conditions: read-out: KD against U87MG cells
Description: (§1) The αvβ3 integrin receptor is over-expressed on many solid tumor cells making it an important cancer target. The Agouti related protein (AgRP), a cystine-knot peptide, contains four disulfide bonds and four solvent-exposed loops. It was engineered to target αvβ3 integrin receptors with pM binding affinity.

K562-αvβ3 cells = assay: Binding of AgRP mutant 7A to K562-αvβ3 cells; conditions: read-out: KD against K562-αvβ3 cells
Description: as §1

Met receptor = molecular target: T1, Met receptor (Homo sapiens, UniProt P08581); assay: Met receptor phosphorylation assay in PC3 cells; format: cell-based; conditions: 0.3 nM HGF, Western blot
T1 construct: PC3 cells express medium levels of the αvβ3 integrin and Met; endogenous in cells; host or cells: PC3 prostate cancer cells
Protocol: A Met receptor phosphorylation assay was performed in PC3 (prostate cancer cells). Met receptor phosphorylation was assayed by Western blot after stimulation with 0.3 nM HGF. […] (Note: PC3 cells express medium levels of the αvβ3 integrin and Met, and low levels of the α5β1 integrin).

HUVECs = assay: HUVEC proliferation assay stimulated with HGF; conditions: 0.5 nM HGF
αvβ3 integrin = αvβ3 integrin (Homo sapiens, UniProt P05106+P06756); assay: cRGD competition of EETI 2.5D-Axl binding to K562-αvβ3 cells
[1] = system: human umbilical vein endothelial cells (HUVECs); assay: HUVEC cell binding assay of knottin-NK1 fusions; conditions: read-out: binding affinity (KD) towards HUVECs
Description: HUVECs express medium levels of the αvβ3, αvβ5 integrins, the Met receptor, and a high level of the […] integrin.

human Met-Fc = human Met-Fc (Homo sapiens, UniProt P08581); assay: Dual receptor direct binding assay on K562-αvβ3 cells; conditions: Met-Fc 220 nM, proteins 2 or 20 nM
Protocol: In this experiment, a mixture of soluble Alexa-488 labeled human Met-Fc (220 nM) and the mono-specific and the multi-specific proteins (2 or 20 nM) were added to K562-αvβ3 cells. Binding was detected by flow cytometry.

[2] = Serum stability, Western Blot; format: in vitro ADME; conditions: 40% human serum, 37° C., 7 days
Protocol: Serum stability of AgRp7A-M2.2(D127A) and EETI2.5F-M2.2(D127A) was shown when the proteins were incubated with 40% human serum at 37° C. for over several days. Samples were analyzed by Western Blot and detected with an antibody against the FLAG epitope tag.

Gas6 [3] = molecular target: T2, Gas6 (Homo sapiens, UniProt Q14393); assay: Yeast surface display equilibrium binding to soluble Gas6; design: purchased R&D Systems
T2 sequence (Q14393 31-678): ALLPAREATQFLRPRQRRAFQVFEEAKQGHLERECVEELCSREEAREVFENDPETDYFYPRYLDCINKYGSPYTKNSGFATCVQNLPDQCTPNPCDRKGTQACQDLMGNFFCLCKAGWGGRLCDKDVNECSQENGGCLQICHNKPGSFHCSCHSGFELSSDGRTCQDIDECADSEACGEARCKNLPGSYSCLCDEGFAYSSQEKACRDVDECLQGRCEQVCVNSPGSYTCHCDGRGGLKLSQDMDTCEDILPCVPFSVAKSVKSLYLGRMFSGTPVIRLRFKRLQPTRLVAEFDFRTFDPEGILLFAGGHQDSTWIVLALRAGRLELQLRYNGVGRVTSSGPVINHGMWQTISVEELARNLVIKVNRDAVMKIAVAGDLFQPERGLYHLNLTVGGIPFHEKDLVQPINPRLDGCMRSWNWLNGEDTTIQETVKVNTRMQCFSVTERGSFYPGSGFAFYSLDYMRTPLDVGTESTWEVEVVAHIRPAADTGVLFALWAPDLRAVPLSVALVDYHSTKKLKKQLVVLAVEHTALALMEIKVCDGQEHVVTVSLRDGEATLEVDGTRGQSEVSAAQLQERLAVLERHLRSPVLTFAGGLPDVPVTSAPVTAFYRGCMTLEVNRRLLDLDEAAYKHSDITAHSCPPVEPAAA

[4] = Melting temperature of engineered Axl Ig1 clone; conditions: versus wild-type Axl Ig1
Gas6 [5] = molecular target: T2, Gas6; assay: Equilibrium binding of engineered Axl Ig1 clones to Gas6; conditions: binding to Gas6, versus wild-type Axl Ig1

AgRP mutant, SEQ ID NO: 36 GCVRLHESCLGQQVPCCDPAATCYCSGRGDNDLVCYCR (ends and bridges not checked; cysteine pairing not given here) [AgRp7A]
Kd (U87MG cells): 0.78 nM | Kd (K562-αvβ3 cells): 0.89 nM | inhibition of Met phosphorylation (Met receptor): did not show inhibition | inhibitory effect on HUVEC proliferation (HUVECs): little inhibitory effect

EETI RGD mutant binding αvβ3, αvβ5, α5β1, SEQ ID NO: 33 GCPRPRGDNPPLTCKQDSDCLAGCVCGPNGFCG (ends and bridges not checked; cysteine pairing not given here) [EETI2.5F]
inhibitory effect on HUVEC proliferation (HUVECs): good inhibition | inhibition of HUVEC proliferation (HUVECs; 1 μM, cells alone=90% inhibition): 70%

cRGD [reference compound]
binding of EETI 2.5D-Axl to K562-αvβ3 cells with molar excess of cRGD (αvβ3 integrin): inhibits the binding

B1: AgRp7A-M2.2(D127A): AgRP 7A knottin fused to NK1 fragment of HGF (M2.2 (D127A)), SEQ ID NO: 86 (protein)
chain: DYKDDDDKPRGCVRLHESCLGQQVPCCDPAATCYCSGRGDNDLVCYCRYAEGQRKRRNTIHEFKKSAKTTLIKIDPALKIKTEKVNTADQCANRCTRNKGLPFTCKAFVFDKARKRCLWFPFNSMSSGVKKEFGHEFDLYENKDYIRACIIGNGRSYRGTVSITKSGIKCQPWSSMIPHEHSFLPSSYRGEDLRENYCRNPRGEEGGPWCFTSDPEVRYEVCDIPQCSEVETRHHHHHH
Kd [1]: 9.4 ± 1 nM | simultaneous binding to soluble Met-Fc and αvβ3 integrin on cells (human Met-Fc): able to bind to soluble Met-Fc | amount of intact fusion protein in serum [2]: No significant decrease | inhibitory effect on HUVEC proliferation (HUVECs): higher inhibitory effects

B2: AgRp7A-M2.2: AgRP 7A knottin fused to NK1 fragment of HGF (M2.2), SEQ ID NO: 85 (protein)
chain: B1 chain with A148D
simultaneous binding to soluble Met-Fc and αvβ3 integrin on cells (human Met-Fc): able to bind to soluble Met-Fc

B3: AgRp7A-Aras4: AgRP 7A knottin fused to NK1 fragment of HGF (Aras4), SEQ ID NO: 66 (protein)
chain: B1 chain with R54G, K79R, V85A, N98S, D144A, A148D, N153R, S156N, S175A, F211Y
inhibition of Met phosphorylation (Met receptor): Dose dependent decreases; also recorded: slightly higher inhibitory effects

B4: Wt EETI-Axl: Wild-type EETI-II fused to the Axl Ig1 N-terminus (protein)
chain: GCPRILMRCKQDSDCLAGCVCGPNGFCGSRGTQAEESPFVGNPGNITGARGLTGTLRCQLQVQGEPPEVHWLRDGQILELADSTQTQVPLGEDEQDDWIVVSQLRITSLQLSDTGQYQCLVFLGHQTFVSQPGYVGLEGLP
affinity / binding to Gas6 (Gas6 [3]): same affinity as wild-type Axl

B5: EETI2.5F-M2.2(D127A): EETI 2.5F knottin fused to NK1 fragment of HGF (M2.2 (D127A)), SEQ ID NO: 89 (protein)
chain: DYKDDDDKPRGCPRPRGDNPPLTCSQDSDCLAGCVCGPNGFCGYAEGQRKRRNTIHEFKKSAKTTLIKIDPALKIKTEKVNTADQCANRCTRNKGLPFTCKAFVFDKARKRCLWFPFNSMSSGVKKEFGHEFDLYENKDYIRACIIGNGRSYRGTVSITKSGIKCQPWSSMIPHEHSFLPSSYRGEDLRENYCRNPRGEEGGPWCFTSDPEVRYEVCDIPQCSEVETRHHHHHH
Kd [1]: 4.7 ± 0.6 nM | simultaneous binding to soluble Met-Fc and αvβ3 integrin on cells (human Met-Fc): able to bind to soluble Met-Fc | amount of intact fusion protein in serum [2]: No significant decrease | inhibitory effect on HUVEC proliferation (HUVECs): higher inhibitory effects

B6: EETI2.5F-M2.2: EETI 2.5F knottin fused to NK1 fragment of HGF (M2.2), SEQ ID NO: 88 (protein)
chain: B5 chain with A143D
simultaneous binding to soluble Met-Fc and αvβ3 integrin on cells (human Met-Fc): able to bind to soluble Met-Fc

B7: Axl S6-1: engineered Axl Ig1, G32S, D87G, V92A, G127R, SEQ ID NO: 62 (protein)
chain: APRGTQAEESPFVSNPGNITGARGLTGTLRCQLQVQGEPPEVHWLRDGQILELADSTQTQVPLGEDEQGDWIVASQLRITSLQLSDTGQYQCLVFLGHQTFVSQPGYVRLEGLP
improvement in melting temperature over wild-type [4]: 13 °C | fold improvement in equilibrium binding over wild-type (Gas6 [5]): 20 fold

From patent publication US12240882B2, “Fusion proteins comprising an engineered knottin peptide and uses thereof” (The Board of Trustees of the Leland Stanford Junior …, priority 2010, dated 2025)
